From the DeepSol protein solubility set come the findings set out here.

This data set is described as follows: soluble on expression in E. coli; label from the status in PepcDB or PDB records.
Regarding “MGRDRISELPDGLLNHILMYLHIEESIRTSVLSSRWRKLWLKVPGLDVNVHDFPADGNLFESLMDKFLEVNRGRLQNFKLNYESNLYYLMDRFVPWIATVVDRGIQHLDVTATDCPPWTIDFMPANICKSKTLVSLKLVNVGLDTPKFVVSLPCLKIMHLEDIFYSPLIAENLISGCPVLEDLTIVRNHEDFLNFLRVMSQTLKNFRLTFDWGMGSNDFSVEIDAPGLKYMSFRDSQSDRIVVKNLSSLVKIDLDTEFNLKFGLGSPLEPEDLTKRDIIRDFLTGISSVKHMIISHPTLEVLYRYSKIGQLPKFHNLYHLQAVFSSSLLQLLPAFLEICPNLKNLILDYSISAEPEQIDFTNLPRCLISTLEYVEIKQLTMREESGIKLVKYFLENSAVLKKLTLSFIDSPMTNQESEIYMQLLTSTKRSRGCHVLIL”, the “soluble on expression in E. coli” value is “soluble”.

Regarding “MGSDKIHHHHHHMTITPHTLAVWADDQRAGLLDRSIDQHQYVFAYDPAAESPSAQVSLTMPVRLESWASRDLHPIFQMNLPEGALLEAIRRTVSKLIGEDDLTILRVTGGNQVGRNRFSLAADPAPGIVETKESLDELLSYPDTEELFNDLVAKYALRSGVSGVQPKVMLDATERGTAAVGGYIVKSWGSEYPQLAANEFFCMTAAKRAGLSVPEFHLSENGGLFVMKRFDLGERGEPLGFEDICSLQALATTRKYSSTYERVARTIKDFVSPAALLVAREQFFASLVLSCMVRNGDAHLKNFGVLYDRPGQLVQLAPVYDVVTTTAYIPKDVPALSLFGTKKWWSRRALERFAVSHLSLPVGRVGQILEKVAEAVTDTRGIVSAYMVEHPEYREVGNLQLASWEVGVANLVLI”, the “soluble on expression in E. coli” value is reported as “not soluble”.

In the case of “MSSAAKNFYQVVKSAPKGRFKGIKRDYTVEDVLKLRGSIDIDYTLATRGANKLWQLLHTEPFVPALGAQTGNQAVQMVRAGLKAIYLSGWQVAADANSAGDMYPDQSLYPANSGPELAKRINRSLRRADQIEACEAEDYLAQRDWYAPIVADAEAGFGGALNCFELMKAYIEAGAAGVHYEDQLGSEKKCGHMGGKVLIPTAQHIRHLNASRLAADVCGVPTIIVARTDAESSRLLTSDIDPRDHPYIDYEAGRTIEGFYRLKDSTAIQYCIDRAIQYAPYTDLIWMETSHPTIADAREFAEGVHKQYPDKMFAYNCSPSFNWKKHLSPSQMEKFQKELGAMGFKYQFITLAGYHANSYSMFDLARNYKEKGMLAYSGLQEGEFAAEKHGYTAVKHQREVGTGYFDAVSRAVTGGLSSTTALSGSTEEAQFQTAVASQDEEILSLTAQNVAGDEKILTPDALRFLHDLNTEFNPRRLRLLSKRNQVQADINNSLWFPDFNKETEVLRSDQGWKGAEIPRDLQDRRVEITGPTDRKMVINAMNSGANVFMADFEDSNSPTWRNQLEGQINLYDAVRNNISYTHPTTKKEYTLNEKHAVLKVRPRGWHLPEKHVLIHNQPTSGSLFDFGLFVFHNAKALIAQGSGPYFYLPKLQSAEEAQLWADVFKYTEDKLGLARGTIKCTVLIEHLLASFQLHEIIHALKDNIVGLNCGRWDYIFSYIKTFQNHRKFLLPDRFQIGMTAPFMRNYSLEVIKACHLRGIHAMGGMAAQIPIKHDQVANDKAFALVRADKEREATDGHDGTWVAHPGLVPLAKRVFDQMMPKPNQISKNLTRANCTKEDLTVIPEGTRTEAGFRHNISVTLGYLDSWLRGTGCVPLYNLMEDAATAEISRAQLWQWLHHDAKLEDGRTIDAGLVKQTIAAETERRLIRAGSVVNRIPEAADLLEKFVTEEKMSDFLTTDAYDRLVSEGY”, the “soluble on expression in E. coli” value is “not soluble”.

As to “MHEFTDTRDDSTLDEIWLVEHYPVFTQGQAGKAEHILMPGDIPVIQSDRGGQVTYHGPGQQVMYVLLNLKRRKLGVRELVTLLEQTVVNTLAELGIEAHPRADAPGVYVGEKKICSLGLRIRRGCSFHGLALNVNMDLSPFLRINPCGYAGMEMAKISQWKPEATTNNIAPRLLENILALLNNPDFEYITALEHHHHHH”, the “soluble on expression in E. coli” value is listed as “not soluble”.

Consider “MAFEESLVMVSSLSRLSICTSSAYDEAATKNQPDSCVSTSLENFDGAEADGEVSDDGEGKENVRESDSDKETRGFYSLPVTPSRRRRKLTVSGELDANESNKNGSKCSLRRQRREKKKKGVNGECDVGGREGLTVLTRARGGDRSLRMGLQEVKACRDLGFELEVPVPGRISVSTTGSNFDTQTSSGGDSPIATWRISSPGDDPKEVKARLKVWAQAVALASATRQAS”, for which the “soluble on expression in E. coli” value was “not soluble”.
